From patent US20260092113A1 (Sanofi, published 2026)

Target: T1, human OX40 on the surface of target cells (HEK293 cells expressing human OX40, jurkat cells engineered to … (human, UniProt P43489 29-277))
T1 construct: whole, on cells; also called huOX40
T1 sequence (looked up): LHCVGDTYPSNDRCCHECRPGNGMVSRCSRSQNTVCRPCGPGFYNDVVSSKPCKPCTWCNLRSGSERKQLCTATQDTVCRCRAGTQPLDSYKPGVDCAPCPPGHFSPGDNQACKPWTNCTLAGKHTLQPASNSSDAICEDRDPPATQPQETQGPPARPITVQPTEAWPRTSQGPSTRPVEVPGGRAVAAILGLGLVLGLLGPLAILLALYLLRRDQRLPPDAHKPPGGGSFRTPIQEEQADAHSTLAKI
Assay: flow cytometry on HEK293 cells expressing human OX40, anti-human IgG Fc PE, MFI
Text: The cell lines used were HEK293 cells expressing human OX40 or cyno OX40, jurkat cells, and jurkat cells engineered to express human OX40. […] Frozen target cells were thawed and seeded at 5×10⁴ cells per well.
For live dead cell discrimination cells were stained according to manufacturer's protocol using the LIVE/DEAD™ Fixable Yellow Dead Cell Stain Kit (Molecular Probes, L34959).

B1: bispecific antibody L1 (anti-CD28/anti-OX40) (bispecific antibody, human IgG1, kappa, L234A L235A)
light: not shown
heavy: not shown
chain: DVQLVESGGGVVQPGGSLRLSCAASGSFFSIDTMDWYRQAPGKQRELVTGVTSGGLTNYADSVKGRFTISIDNAKNTVYLQMNSLRPEDTALYYCSARIRTSGGGGWSTYWGQGTLVTVSSGGGGSDKTHTCPPCPAPEAAGGPSVFLFPPKPKDTLMISRTPEVTCVVVDVSHEDPEVKFNWYVDGVEVHNAKTKPREEQYNSTYRVVSVLTVLHQDWLNGKEYKCKVSNKALPAPIEKTISKAKGQPREPQVCTLPPSRDELTKNQVSLSCAVKGFYPSDIAVEWESNGQPENNYKTTPPVLDSDGSFFLVSKLTVDKSRWQQGNVFSCSVMHEALHNRFTQKSLSLSPG
notes: also called L1 & L4 OX40 arm x L1 & L3 & L2 CD28 arm
- EC50 (read off the curve): ~0.8 nM
